How the values were obtained:
[1] = target: HIV-1 capsid protein C-terminal domain, CTD (144–231) (HIV-1) (UniProt P12493); assay: ITC
[2] = target: HIV-1 capsid protein C-terminal domain, CTD (150–231) (HIV-1) (UniProt P12493); assay: ITC

Substance: HIV-1 capsid protein C-terminal domain, CTD (144–231) (from UniProt P12493 276-363) (domain or fragment)
- Kd [1]: 2.5 µM

Substance: HIV-1 capsid protein C-terminal domain, CTD (150–231) (from UniProt P12493 282-363) (domain or fragment)
- Kd [2]: 11 µM

— PMC3325613
